Measurements taken from article PMC4024478 (Protein expression and purification, 2014).

What was measured:
Assay in all cases: pull-down
[1] = target: PDZ3 Domain-HaloTag fusion protein (PSD-95 PDZ3) on HaloLink resin (Mus musculus, UniProt Q62108 302-402)
[2] = target: PDZ2 Domain-HaloTag fusion protein (PSD-95 PDZ2) on HaloLink resin (Mus musculus, UniProt Q62108 155-249)
[3] = target: HaloTag-PDZ1+PDZ2 fusion protein (PSD-95 PDZ1-2) on HaloLink resin (Mus musculus, UniProt Q62108 61-249)
[4] = target: MBP fusion protein containing an N-terminal PDZ2 Tag (Mus musculus, UniProt Q62108 155-249)
MBP fusion protein containing an N-terminal PDZ2 Tag, sequence (Q62108 155-249): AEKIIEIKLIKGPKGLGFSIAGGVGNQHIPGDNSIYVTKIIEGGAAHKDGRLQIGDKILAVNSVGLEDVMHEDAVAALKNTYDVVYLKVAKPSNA

[5] = target: MBP fusion protein containing a C-terminal PDZ2 Tag (Mus musculus, UniProt Q62108 155-249)
MBP fusion protein containing a C-terminal PDZ2 Tag, sequence (Q62108 155-249): as above

[6] = target: MBP-GST fusion protein containing an internal PDZ2 Domain Tag (Mus musculus, UniProt Q62108 155-249)
MBP-GST fusion protein containing an internal PDZ2 Domain Tag, sequence (Q62108 155-249): as above

[7] = target: PDZ2 domain of PSD-95 (Mus musculus, UniProt Q62108 155-249)
PDZ2 domain of PSD-95, sequence (Q62108 155-249): as above

Measured: binding result

HaloTag-PDZ1+PDZ2 fusion protein (PSD-95 PDZ1-2) on HaloLink resin, sequence (Q62108 61-249): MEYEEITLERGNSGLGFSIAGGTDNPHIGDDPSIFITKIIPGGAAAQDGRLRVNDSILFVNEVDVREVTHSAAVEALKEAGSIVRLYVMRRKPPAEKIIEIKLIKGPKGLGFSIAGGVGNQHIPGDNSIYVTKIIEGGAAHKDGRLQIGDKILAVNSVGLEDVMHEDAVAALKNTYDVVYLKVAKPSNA
PDZ3 Domain-HaloTag fusion protein (PSD-95 PDZ3) on HaloLink resin, sequence (Q62108 302-402): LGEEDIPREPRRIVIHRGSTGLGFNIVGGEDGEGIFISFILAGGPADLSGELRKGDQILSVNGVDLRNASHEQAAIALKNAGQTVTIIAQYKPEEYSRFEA
PDZ2 Domain-HaloTag fusion protein (PSD-95 PDZ2) on HaloLink resin, sequence (Q62108 155-249): as the sequence (Q62108 155-249) above

YKQTSV [YKQTSV peptide]
binds: [1]

SIESDV [SIESDV peptide (free GluN2B Peptide Ligand)]
not listed: [1]
binds: all other assays above
